Results reported in PMC7746637 (Nature chemical biology, 2020).
Where two headings read alike, the source gives them in different places.

Legend:
Assay in all cases: native MS
[1] = biological target: K2P4.1a (TRAAK, shorter isoform, truncated, residues 1-264), tags removed (human)
native MS [2] = biological target: the molecule itself
native MS [3] = biological target: the molecule itself; remark: listed apart in the source

## K2P4.1a (TRAAK, shorter isoform, truncated, residues 1-264), tags removed (domain or fragment)
[1]
  stoichiometry N: 2

B1: K2P4.1b (residues 1-290) as a C-terminal fusion to mCherry, Strep-tag II and His6 (pPIC-K2P4.1b-mC-S-H) (domain or fragment, human, UniProt Q9NYG8-2 1-290, looked up)
chain: MTTAPQEPPARPLQAGSGAGPAPGRAMRSTTLLALLALVLLYLVSGALVFRALEQPHEQQAQRELGEVREKFLRAHPCVSDQELGLLIKEVADALGGGADPETQSTSQSSHSAWDLGSAFFFSGTIITTIGYGNVALRTDAGRLFCIFYALVGIPLFGILLAGVGDRLGSSLRHGIGHIEAIFLKWHVPPELVRVLSAMLFLLIGCLLFVLTPTFVFCYMEDWSKLEAIYFVIVTLTTVGFGDYVAGADPRQDSPAYQPLVWFWILLGLAYFASVLTTIGNWLRVVSRRT
Native MS [2]
  stoichiometry N: 2

B2: K2P4.1b (TRAAK, longer isoform, truncated, residues 1-290), expressed with tags at both termini, tags removed (domain or fragment, human, UniProt Q9NYG8-2 1-290, looked up)
chain: MTTAPQEPPARPLQAGSGAGPAPGRAMRSTTLLALLALVLLYLVSGALVFRALEQPHEQQAQRELGEVREKFLRAHPCVSDQELGLLIKEVADALGGGADPETQSTSQSSHSAWDLGSAFFFSGTIITTIGYGNVALRTDAGRLFCIFYALVGIPLFGILLAGVGDRLGSSLRHGIGHIEAIFLKWHVPPELVRVLSAMLFLLIGCLLFVLTPTFVFCYMEDWSKLEAIYFVIVTLTTVGFGDYVAGADPRQDSPAYQPLVWFWILLGLAYFASVLTTIGNWLRVVSRRT
Native MS [3]
  stoichiometry N: 2
